Laboratory results as given in patent US20190322750A1 (Y BIOLOGICS, published 2019).
One block for each binder: values may come before it.

Assays:
M2 = assay: ELISA on coated antigen, column M2
Procedure: (§1) An antigen PD-L1 wild type (WT) or several mutants were coated at a density of 100 ng/well on a 96-well immunoplate at 4° C. for 16 hours and the wells were blocked with 4% skim milk dissolved in PBS. Each well was washed with 0.2 ml of PBS/T, and then a single clone scFv-phage (each […]) cultured for 16 hours was added in a dose of 100 μl to each well and reacted at room temperature for 2 hours. Again, each well was washed 4 times with 0.2 ml of PBS/T, and then the second antibody, anti-Fab, was diluted to 1/2000 and reacted at room temperature for 1 hour. After washing with 0.2 ml of PBS/T, color development was performed and absorbance was measured at 490 nm.

M6 = assay: ELISA on coated antigen, column M6
Procedure: as §1

WT = biological target: T1, WT (human, UniProt Q9NZQ7); assay: ELISA on coated antigen, column WT
T1 construct: recombinant; also called hPD-L1; antigen PD-L1 wild type (WT)
T1 sequence (Q9NZQ7 19-238 limits assumed): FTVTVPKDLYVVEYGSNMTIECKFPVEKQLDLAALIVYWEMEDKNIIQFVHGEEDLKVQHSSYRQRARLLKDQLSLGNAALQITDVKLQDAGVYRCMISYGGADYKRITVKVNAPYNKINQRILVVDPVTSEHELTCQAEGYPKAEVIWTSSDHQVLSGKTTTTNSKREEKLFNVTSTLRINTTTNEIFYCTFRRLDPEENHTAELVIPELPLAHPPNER
Procedure: as §1

M5 = assay: ELISA on coated antigen, column M5
Procedure: as §1

[1] = biological target: T2, PD-L1 on CHO cell line highly expressing PD-L1 (PD-1/PD-L1 blockade bioassay kit, promega J1250) (UniProt Q9NZQ7 19-290, limits assumed); assay: cell-based or functional assay
T2 sequence (Q9NZQ7 19-290 limits assumed): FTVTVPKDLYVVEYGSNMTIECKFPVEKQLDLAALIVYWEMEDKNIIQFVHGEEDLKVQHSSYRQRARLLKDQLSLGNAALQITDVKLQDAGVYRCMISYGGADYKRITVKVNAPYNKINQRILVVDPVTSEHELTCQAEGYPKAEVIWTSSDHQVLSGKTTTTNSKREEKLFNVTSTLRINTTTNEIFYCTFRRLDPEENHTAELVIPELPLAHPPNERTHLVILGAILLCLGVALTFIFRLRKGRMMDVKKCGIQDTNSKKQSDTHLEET

M7 = assay: ELISA on coated antigen, column M7
M8 = assay: ELISA on coated antigen, column M8
Procedure: as §1

mouse PD-L1 protein [2] = biological target: T3, mouse PD-L1 protein (mouse, UniProt Q9EP73 19-238, limits assumed); assay: ELISA on coated antigen, column mPD-L1
T3 sequence (Q9EP73 19-238 limits assumed): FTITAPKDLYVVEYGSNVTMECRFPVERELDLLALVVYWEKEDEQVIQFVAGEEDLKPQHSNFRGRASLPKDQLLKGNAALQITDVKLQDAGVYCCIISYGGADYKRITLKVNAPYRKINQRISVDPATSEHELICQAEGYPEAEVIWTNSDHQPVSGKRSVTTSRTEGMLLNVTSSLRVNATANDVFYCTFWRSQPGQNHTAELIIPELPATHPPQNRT
Procedure: as §1

ITGA6 = biological target: T4, ITGA6; assay: ELISA on coated antigen, column ITGA6
T4 construct: unrelated antigen column; all antibodies give 0.5 to 0.6
T4 sequence (P23229 whole entry, species assumed, looked up): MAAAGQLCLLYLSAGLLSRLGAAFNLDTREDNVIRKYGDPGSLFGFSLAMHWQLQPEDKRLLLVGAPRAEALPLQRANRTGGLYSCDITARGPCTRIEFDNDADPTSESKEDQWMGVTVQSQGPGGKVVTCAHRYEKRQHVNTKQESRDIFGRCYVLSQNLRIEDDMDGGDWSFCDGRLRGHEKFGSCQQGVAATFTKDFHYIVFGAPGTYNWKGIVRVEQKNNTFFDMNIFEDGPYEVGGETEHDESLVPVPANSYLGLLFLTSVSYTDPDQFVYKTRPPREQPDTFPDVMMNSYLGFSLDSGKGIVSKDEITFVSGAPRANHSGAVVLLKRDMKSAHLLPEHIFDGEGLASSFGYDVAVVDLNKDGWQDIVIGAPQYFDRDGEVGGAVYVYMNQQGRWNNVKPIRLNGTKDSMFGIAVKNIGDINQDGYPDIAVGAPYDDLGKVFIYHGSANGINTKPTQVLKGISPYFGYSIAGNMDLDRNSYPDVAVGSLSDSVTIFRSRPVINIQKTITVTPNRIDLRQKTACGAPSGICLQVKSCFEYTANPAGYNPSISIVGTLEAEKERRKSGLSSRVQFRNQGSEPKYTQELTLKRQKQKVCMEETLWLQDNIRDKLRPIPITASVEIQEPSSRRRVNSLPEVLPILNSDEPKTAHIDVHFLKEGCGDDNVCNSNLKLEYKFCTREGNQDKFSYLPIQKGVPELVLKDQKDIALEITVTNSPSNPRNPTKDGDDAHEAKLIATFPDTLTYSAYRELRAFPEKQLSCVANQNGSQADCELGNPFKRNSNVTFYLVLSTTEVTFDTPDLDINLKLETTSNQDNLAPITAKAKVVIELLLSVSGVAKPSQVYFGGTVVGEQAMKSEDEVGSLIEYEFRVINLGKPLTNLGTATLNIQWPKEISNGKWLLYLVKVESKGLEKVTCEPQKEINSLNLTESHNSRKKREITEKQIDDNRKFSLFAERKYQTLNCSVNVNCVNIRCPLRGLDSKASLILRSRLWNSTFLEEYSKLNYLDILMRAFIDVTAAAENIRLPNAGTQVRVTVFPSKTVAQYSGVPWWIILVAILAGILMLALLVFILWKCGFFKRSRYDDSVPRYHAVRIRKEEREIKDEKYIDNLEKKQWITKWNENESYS

M1 = assay: ELISA on coated antigen, column M1
Procedure: as §1

M3 = assay: ELISA on coated antigen, column M3
M4 = assay: ELISA on coated antigen, column M4
Procedure: as §1

PD-L1-His = biological target: T5, PD-L1-His (human, UniProt Q9NZQ7); assay: competition ELISA: PD-L1-His pre-incubated with the antibody, then on coated PD-1-Fc (blocked ligand); % of max absorbance
T5 construct: recombinant, His-tagged; also called human PD-L1-His (S1479, Y-Biologics)
T5 sequence (Q9NZQ7 19-238 limits assumed): as the sequence (Q9NZQ7 19-238 limits assumed) above

PD-L2-Fc = biological target: T6, PD-L2-Fc (human, UniProt Q9BQ51); assay: ELISA on coated PD-L2-Fc (2.5 and 5 ug/well), OD450nm
T6 construct: recombinant Fc fusion; also called human PD-L2-Fc (#10292-H02H, Sino)
T6 sequence (ligand-Fc, looked up): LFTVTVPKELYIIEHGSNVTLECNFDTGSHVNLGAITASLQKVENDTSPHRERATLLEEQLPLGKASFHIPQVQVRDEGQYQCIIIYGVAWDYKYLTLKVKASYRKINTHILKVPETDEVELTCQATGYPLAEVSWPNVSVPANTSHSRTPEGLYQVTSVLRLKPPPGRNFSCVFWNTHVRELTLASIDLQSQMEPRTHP

[3] = biological target: T2, PD-L1 on CHO cell line highly …; assay: cell-based or functional assay; remark: listed apart in the source
[4] = biological target: T7, human PD-L1 over-expressed on HEK293E cells (human, UniProt Q9NZQ7 19-290); assay: flow cytometry on HEK293E/PD-L1 cells, FITC anti-human IgG, serial dilutions; fit table
T7 construct: whole, on cells; also called human PD-L1 (NM_014143.2)
T7 sequence (Q9NZQ7 19-290): as the sequence (Q9NZQ7 19-290 limits assumed) above
Procedure: 0.5 to 1×10⁶ cells per sample were prepared from the transformation cell pools highly expressing human PD-L1, and antibodies were serially diluted at a constant dilution rate and reacted with the prepared cells at 4° C. for 20 minutes. Then, the cells were washed three times with PBS (#LB001-02, Welgene) containing 2% fetal bovine serum and reacted at 4° C. for 20 minutes with an anti-human IgG antibody (#FI-3000, Vectorlabs) conjugated with a FITC (fluorescein isothiocyanate) fluorescent substance. Then, the cells were subjected to the same washing process as above and then suspended in 0.5 ml of PBS containing 2% FBS (#26140-079, Thermo Fisher) with an FACSCanto II flow cytometer (BD Biosciences, USA) as a flow cytometer (Table 11).

PD-L1-hFc [5] = biological target: T8, PD-L1-hFc (human, UniProt Q9NZQ7 19-238); assay: kinetics on PD-L1-hFc (legend paragraph 40; text names ProteOn XPR36, the sheet's sensorgrams have a nm axis)
T8 construct: extracellular domain; Made in HEK-293F cells, protein A purified; also called PD-L1 antigen; PD-L1 protein
T8 sequence (Q9NZQ7 other isoform, or with tags, fused parts or gaps limits assumed): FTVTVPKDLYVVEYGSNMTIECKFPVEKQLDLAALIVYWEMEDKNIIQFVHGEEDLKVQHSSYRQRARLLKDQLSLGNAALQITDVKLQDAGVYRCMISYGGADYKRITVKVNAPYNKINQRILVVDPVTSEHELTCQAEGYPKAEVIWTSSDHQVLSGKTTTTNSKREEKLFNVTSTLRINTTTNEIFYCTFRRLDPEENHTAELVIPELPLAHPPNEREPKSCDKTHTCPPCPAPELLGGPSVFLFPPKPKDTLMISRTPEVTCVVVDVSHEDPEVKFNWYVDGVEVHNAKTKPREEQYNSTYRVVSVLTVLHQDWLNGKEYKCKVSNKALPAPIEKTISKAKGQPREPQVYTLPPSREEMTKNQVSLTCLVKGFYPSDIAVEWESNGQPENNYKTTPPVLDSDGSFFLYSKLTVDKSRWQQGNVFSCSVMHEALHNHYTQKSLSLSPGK

cynomolgus PD-L1 protein = biological target: T9, cynomolgus PD-L1 protein (cynomolgus, UniProt G7PSE7 19-239); assay: SPR (ProteOn XPR36); format of the cynomolgus protein not stated; cynomolgus PD-L1
T9 construct: also called monkey PD-L1
T9 sequence (G7PSE7 entry or part of it): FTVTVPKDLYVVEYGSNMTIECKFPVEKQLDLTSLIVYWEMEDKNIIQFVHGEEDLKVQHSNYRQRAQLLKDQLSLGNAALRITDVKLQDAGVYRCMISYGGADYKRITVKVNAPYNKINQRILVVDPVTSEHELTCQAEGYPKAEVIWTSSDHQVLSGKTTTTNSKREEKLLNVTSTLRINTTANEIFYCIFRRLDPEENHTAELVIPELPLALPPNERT

mouse PD-L1 protein [6] = biological target: T3, mouse PD-L1 protein; assay: SPR (ProteOn XPR36); format of the mouse protein not stated
PD-L1-hFc [7] = biological target: T8, PD-L1-hFc; assay: SPR (ProteOn XPR36), PD-L1-hFc immobilised on GLC chip, antibody as analyte; human PD-L1
Procedure: A ProteOn XPR36 (BioRad) instrument was used. The GLC sensor chip (BioRad) was mounted on the instrument and washed with PBST buffer, and the carboxymethyldextran surface was activated with an EDC/sulfo-NHS mixed solution. PD-L1-hFc dissolved at a concentration of 5 ug/ml in a 10 mM sodium acetate buffer solution (pH 5.0) was injected and immobilized on the GLC sensor chip.
In order to deactivate the activated carboxyl groups that remain unreacted with the PD-L1 protein, 1 M ethanolamine was flowed and 10 mM glycine (pH 2.0) was injected in order to wash proteins that remain unbound to the sensor chip.

- absorbance at 490 nm (M2): 2.3
- absorbance at 490 nm (M6): 2.5
- absorbance at 490 nm (WT): 2.5
- absorbance at 490 nm (M5): 2.5
- Average *EC50 [nM], PD-1/PD-L1 blockade bioassay [1]: 3.25 nM
- absorbance at 490 nm (M7): 2.5
- absorbance at 490 nm (M8): 0.4
- absorbance at 490 nm (mouse PD-L1 protein [2]): 0.1
- binding result (mouse PD-L1 protein [2]): no binding
- absorbance at 490 nm (ITGA6): 0.5
- absorbance at 490 nm (M1): 2.5
- absorbance at 490 nm (M3): 0.8
- absorbance at 490 nm (M4): 2.4
B1: PDL1-11A7 (antibody, V domains shown)
VH: QVQLVQSGAEVKKPGASVKVSCKVSGYTLTELSMHWVRQAPGKGLEWMGGFDPEDGETIYAQKFQGRVTMTEDTSTDTAYMELSSLRSEDTAVYYCARDPWGGYYGMDVWGQGTTVTVSS
VL: DIQMTQSPSSVSASVGDRVTINCRASQGIRTWLAWYQQKPGKAPKLLIYAASNLQSGVPSRFSGSGSGTDFTLTIASLQPEDFATYYCQQANSFPLTFGGGTKVEIK
notes: Only FR/CDR pieces are tied to the clone

- Average *EC50 [nM], PD-1/PD-L1 blockade bioassay [1]: 0.96 nM
- IC50 (PD-L1-His): 9.11 nM
B2: PD-L1-16E12 (WT/Lambda) (antibody, V domains shown)
VH: QMQLVQSGAEVKKPGSSVKVSCKASGGTFSSYAISWVRQAPGQGLEWMGRIIPILGIANYAQKFQGRVTITADKSTSTAYMELSSLRSEDTAVYYCAKPRDGYNLVAFDIWGQGTMVTVSS
VL: QLVLTQPPSVSGAPGQTVTISCTGSSSNIGAGYDVHWYQQLPGTAPKLLIYGNNNRPSGVPDRFSGSKSGALASLAITGLQAEDGADYHCQSYDNSLSAHAVFGTGTKVTVL

- Average *EC50 [nM], PD-1/PD-L1 blockade bioassay [1]: 0.25 nM
- IC50 (PD-L1-His): 7.66 nM
- binding result (PD-L2-Fc): no binding (tested: 1.0 ug/ml)
B3: PD-L1-16E12-LS-4F5 (Kappa) (antibody, V domains shown)
VH: B2 VH
VL: QLVLTQPPSVSGAPGQRVTISCTGSSSNIGAGYDVHWYQQLPGAAPKLLIYGDINRPSGVPDRFSGSKSGISASLAITGLQAEDEADYYCQSYDSSLSGGVFGGGTKLTVL

- Average *EC50 [nM], PD-1/PD-L1 blockade bioassay [1]: 0.25 nM
- IC50 (PD-L1-His): 6.86 nM
B4: PD-L1-16E12-LS-4F5 (Lambda) (antibody, V domains shown)
VH: B2 VH
VL: B3 VL

- EC50 (column 1차 EC50 [nM], first run; row 16E12, curve legend 16E12_Kappa) [3]: 0.41 nM
- EC50 (column 2차 EC50 [nM], second run; row 16E12, curve legend 16E12_Kappa) [3]: 0.45 nM
- Average *EC50 [nM], PD-1/PD-L1 blockade bioassay [1]: 0.47 nM
- IC50 (PD-L1-His): 7.88 nM
- Bmax [4]: 4140
- Kd [4]: 4 nM
- Kd (PD-L1-hFc [5]): 0.0149 nM
- kon (PD-L1-hFc [5]): 268000 M⁻¹ s⁻¹
B5: PD-L1-16E12 (WT/kappa) (antibody, V domains shown)
VH: B2 VH
VL: B2 VL
notes: also called PD-L1-16E12-Kappa

- Kd (cynomolgus PD-L1 protein): < 0.035 nM
- koff (cynomolgus PD-L1 protein): < 1e-05 s⁻¹
- kon (cynomolgus PD-L1 protein): 287000 M⁻¹ s⁻¹
- Kd (mouse PD-L1 protein [6]): 0.808 nM
- koff (mouse PD-L1 protein [6]): 0.000673 s⁻¹
- kon (mouse PD-L1 protein [6]): 833000 M⁻¹ s⁻¹
- EC50 (first run) [3]: 0.3 nM
- EC50 (second run) [3]: 0.21 nM
- Bmax [4]: 4100
- Kd [4]: 1.46 nM
- Kd (PD-L1-hFc [5]): 0.00853 nM
- koff (PD-L1-hFc [5]): 2.18e-06 s⁻¹
- kon (PD-L1-hFc [5]): 256000 M⁻¹ s⁻¹
- Kd (PD-L1-hFc [7]): < 0.032 nM
- koff (PD-L1-hFc [7]): < 1e-05 s⁻¹
- kon (PD-L1-hFc [7]): 310000 M⁻¹ s⁻¹
B6: PDL1-16E12 (LS/4F5) (antibody, V domains shown)
VH: B2 VH
VL: B3 VL
notes: also called 16E12(4F5); 16E12-4F5
